According to patent US8247531B2, “Mutant epidermal growth factor polypeptides, nucleic acids, and uses therefor” (priority 2006, dated 2012):

What was measured:
[1] = target: EGFR (Homo sapiens, UniProt P00533); conditions: Mullenbach et al., Protein Eng 11:473-480, 1998; cited from earlier work
[2] = target: T1, EGFR on NR6 fibroblast cells (Homo sapiens, UniProt P00533); test: Competition binding of soluble EGF to EGFR on NR6 fibroblast cells (flow cytometry, Alexa-488 labeled wt EGF); conditions: competition with Alexa-488 labeled wt EGF, 6 hr at 4° C., read-out: Equilibrium dissociation constants
T1 construct: expressed in transfected cells; host or cells: NR6 fibroblast cells
Method: (§1) Fluorescence intensity of cell surface labeling was measured by flow cytometry.
as §1
This mutant was tested using one of the binding assays described herein in which binding to EGFR expressed on cells is measured. […] Fluorescence intensity of cell surface labeling was measured by flow cytometry.

Substance | increase in affinity for EGFR over wt EGF (previous data) [1] [fold] | Kd [2] [nM]
G12Q: previously described EGF containing a G12Q mutation (Mullenbach et al.) (NSDSECPLSHDQYCLHDGVCMYIEALDKYACNCVVGYIGERCQYRDLKWWELR) | 5 | –
NSYSECPLSYDGYCLNDGVCRYIEALDRYACNCVVGYIGERCQYRDLKWWWLR (Mutant of human epidermal growth factor) [clone 107, second generation EGF mutant from the SOSM library] | – | 0.13 ± 0.01
